According to US9585933B2, “Therapeutic use of peptide inhibitors of NADPH oxidase; aerosolization as a delivery mechanism” (University of Pittsburgh—Of the Commonwealth System of …, priority 2011, dated 2017):

Legend:
[1] = molecular target: T1, Nox2 oxidase (COS-Nox2 lysate: Nox2, p22phox, p47phox, p67phox) (Homo sapiens, UniProt P14598); assay: Cell-free SOD-inhibitable cytochrome c reduction assay, O2- production in COS-Nox2 lysates; format: biochemical
T1 construct: host or cells: COS 7 cells, stably transfected; cell lysate used
T1 sequence (P14598 1-390): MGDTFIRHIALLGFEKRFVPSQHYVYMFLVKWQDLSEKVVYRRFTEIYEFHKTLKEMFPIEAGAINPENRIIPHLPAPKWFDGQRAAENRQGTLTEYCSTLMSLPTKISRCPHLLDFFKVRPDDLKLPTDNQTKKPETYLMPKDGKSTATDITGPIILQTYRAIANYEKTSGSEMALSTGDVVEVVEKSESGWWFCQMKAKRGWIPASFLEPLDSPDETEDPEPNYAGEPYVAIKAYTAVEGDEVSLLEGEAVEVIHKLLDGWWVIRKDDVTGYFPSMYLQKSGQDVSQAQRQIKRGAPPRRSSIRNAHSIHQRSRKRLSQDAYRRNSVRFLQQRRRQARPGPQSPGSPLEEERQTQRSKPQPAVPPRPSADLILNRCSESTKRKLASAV
Experimental: (§1) To test this hypothesis, the inhibitory activity of Nox2ds was assessed in cell-free assays using reconstituted systems expressing either Nox1, 2 or 4 oxidase. Nox 2 oxidase was recapitulated by stably transfecting COS 7 cells with Nox2, p22phox, p47phox, and p67phox (aka COS-Nox2). Nox1 oxidase was obtained by transfecting COS 7 cells with Nox1, p22phox, NOXO1 and NOXA1 (COS-Nox1), and Nox 4 oxidase was regenerated by transfection of COS 7 cells with Nox4 and p22phox. […] Our new data support selectivity of Nox2ds peptide in differentiating the contribution of Nox2 vs. Nox1 and Nox4 NADPH oxidase and its potential clinical use in ameliorating cardiopulmonary diseases.
COS-Nox2: COS 7 cells transfected with p22^phox, Nox2, p47^phox and p67^phox (M. Dinauer, Indiana University). (Price M O, McPhail L C, Lambeth J D, Han C H, Knaus U G, Dinauer M C. Blood. 2002 Apr. 15; 99(8):2653-61.)
Superoxide (O2^−) production was measured in COS-Nox1 and COS-Nox2 lysates by determining the rate of O2^− dismutase (SOD) inhibitable cytochrome c reduction and by electron paramagnetic resonance (EPR).
COS-Nox2, COS-Nox1/NOXO1/NOXA1, and COS-22 cells were suspended to a concentration of 5×10^7 cells/ml in ice-cold disruption buffer (8 mM potassium, sodium phosphate buffer, pH 7.0, 131 mM NaCl, 340 mM sucrose, 2 mM NaN3, 5 mM MgCl2, 1 mM EGTA, 1 mM EDTA, and protease inhibitor cocktail). The cells were lysed by five freeze/thaw cycles and passed through a 30-gauge needle five times to further lyse the cells. Cell disruption was confirmed by phase-contrast microscopy. The cell lysate was centrifuged at 1000 g for 10 min at 4° C. to remove unbroken cells, nuclei, and debris. Throughout all these procedures, extreme care was taken to maintain the lysate at a temperature close to 0° C. Superoxide production was calculated from the initial linear rate (over 10 min) of SOD-inhibitable cytochrome c reduction quantified at 550 nm using the extinction coefficient of 21.1 mM-1 cm-1 (Biotek Synergy 4 hybrid multimode microplate reader). The oxidase assay buffer consisted of 65 mM sodium phosphate buffer (pH 7.0), 1 mM EGTA, 10 μM FAD, 1 mM MgCl2, 2 mM NaN3, and 0.2 mM cytochrome c. The components of the cell-free system were added in the following order: oxidase assay buffer, cell lysate (5×10^5 cell equivalents/well), and Nox2ds/Scrmb Nox2ds peptides at a final concentration of 0.1, 0.3, 1.0, 3.0, and 10 μM. The plates were placed on an orbital shaker to mix contents for 5 min at 120 movements/min at room temperature. LIDS, an established lipid activator of phagocyte cell-free systems, was added at a concentration of 130 μM, and O2^− production was initiated by the addition of 180 μM NADPH. The concentration of Nox2ds peptide that caused 50% inhibition of O2^− production (IC50) in COS-Nox2 cell lysates was calculated by Prism 5 (GraphPad Software, La Jolla, Calif., USA).
Cytochrome C Assay. FIG. 3A. Rate of O2^− production in COS-Nox2 lysates pretreated with Nox2ds or scrambled control (Scrmb Nox2ds). O2^− production was initiated by the addition of NADPH and measured by the SOD-inhibitable cytochrome c reduction for 10 min.

[2] = molecular target: T2, Nox2 oxidase (COS-Nox2 lysate) (Homo sapiens, UniProt P14598); assay: EPR with spin probe CMH, O2- production in COS-Nox2 lysates; format: biochemical; conditions: 10 μM peptide, vehicle 36330±2658
T2 construct: host or cells: COS 7 cells, stably transfected; cell lysate used
T2 sequence (P14598 1-390): T1 sequence (P14598 1-390)
Experimental: as §1
The spin probe 1-hydroxy-3-methoxycarbonyl-2,2,5,5-tetramethylpyrrolidine hydrochloride (CMH; Alexis Corp., San Diego, Calif., USA) was used to examine O2^− production in COS-Nox2 cell lysates using a Bruker eScan table-top EPR spectrometer (Bruker Biospin, USA). Superoxide production was measured in oxidase assay buffer (65 mM sodium phosphate buffer, pH 7.0, 1 mM EGTA, 10 μM FAD, 1 mM MgCl2, 2 mM NaN3) supplemented with 50 μM CMH. […] Analyses of the EPR spectra peak heights were used to quantify the amount of O2^− produced by the lysates and were compared with buffer-only control spectra or spectra in the presence of 10 μM Nox2ds, 10 μM Scrmb Nox2ds, or 150 U/ml SOD. […]

With “CLRVTRQSR (Scrambled Nox2ds) [scrmb Nox2ds, reference compound]” the “rate of O2- generation, SOD-inhibitable reduction of cytochrome c” value ([1]; 10 μM peptide, 0 μM control 1.33±0.1) was 1.44±0.2 nmol O2^−/min/10^7 lysate-cell equivalents, the “inhibition of Nox2-oxidase O2- production (in words)” value ([1]; cytochrome c assay) was “did not inhibit” and the “CM radical intensity (EPR, O2- production)” value [2] was 34142±6075.
